{"source": "patent US20200246484", "system": "MMP-responsive peptide (P3), cleavable 'L' form, conjugated to PEG (2, 5 or 10 kD) and attached directly to 13-nm Au nanoparticle SNAs", "data": [{"substance": "MMP-9", "values": [{"measurement": "MMP9-mediated cleavage kinetics (fluorescence on release of the N-terminal fluorophore from the Au surface)", "result": "decrease in cleavage rates for 5 kD and 10 kD PEG compared to 2 kD PEG"}]}]}
